Test results published in PMC8956632.

Target: 5-HT1AR-Rluc (UniProt P08908)
Assay: BRET
Conditions: HEK293 cells, basal (no agonist); parent: est. 0.27; read off a plot

OX1R-EGFP, sequence (O43613 whole entry, stated change not applied): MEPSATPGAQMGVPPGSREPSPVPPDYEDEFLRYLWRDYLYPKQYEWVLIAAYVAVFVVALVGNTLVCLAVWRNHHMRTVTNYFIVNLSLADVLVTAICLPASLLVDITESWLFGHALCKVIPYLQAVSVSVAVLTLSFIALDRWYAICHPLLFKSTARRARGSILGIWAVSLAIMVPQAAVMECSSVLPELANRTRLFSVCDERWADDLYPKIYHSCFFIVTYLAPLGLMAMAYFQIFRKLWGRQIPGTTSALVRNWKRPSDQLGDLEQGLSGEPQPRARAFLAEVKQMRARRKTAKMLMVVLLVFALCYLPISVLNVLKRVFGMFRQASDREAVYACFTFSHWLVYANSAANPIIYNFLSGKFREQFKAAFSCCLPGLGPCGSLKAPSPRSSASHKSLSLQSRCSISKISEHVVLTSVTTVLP
5-HT1AR-Rluc, sequence (P08908 whole entry): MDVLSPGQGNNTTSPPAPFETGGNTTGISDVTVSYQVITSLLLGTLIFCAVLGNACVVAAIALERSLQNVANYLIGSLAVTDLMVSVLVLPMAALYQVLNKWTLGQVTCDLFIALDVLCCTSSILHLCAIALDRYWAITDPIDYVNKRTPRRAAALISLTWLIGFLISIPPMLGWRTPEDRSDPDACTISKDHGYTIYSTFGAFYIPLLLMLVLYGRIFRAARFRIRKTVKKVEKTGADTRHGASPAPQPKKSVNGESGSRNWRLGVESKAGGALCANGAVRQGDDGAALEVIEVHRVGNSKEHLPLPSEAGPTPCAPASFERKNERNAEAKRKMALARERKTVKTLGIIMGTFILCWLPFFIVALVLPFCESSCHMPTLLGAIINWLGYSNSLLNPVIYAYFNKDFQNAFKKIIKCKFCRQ

OX1R-EGFP (from UniProt O43613) L168A
response: 0.27
